Measured values published in patent publication US20220229068A1, “DETECTION OF PROTEIN TO PROTEIN INTERACTIONS” (THE GOVERNING COUNCIL OF THE UNIVERSITY OF TORONTO, priority 2019, published 2022).
Blank lines part the entries; values can stand above or below the substance they belong to.

Assays:
[1] = target: F44B9.8 (C. elegans prey, IC format) (C. elegans) (UniProt P34429); test: SIMPL ELISA, C. elegans lysate, IN/IC; ratio of spliced signal to total signal
[2] = target: LMNB1 (prey, CIC format) (human) (UniProt P20700); test: SIMPL ELISA, bait-IN/prey-CIC
[3] = target: T1, PEX3 (prey, CIC format) (human) (UniProt P56589); test: SIMPL ELISA, bait-IN/prey-CIC
T1 sequence (looked up): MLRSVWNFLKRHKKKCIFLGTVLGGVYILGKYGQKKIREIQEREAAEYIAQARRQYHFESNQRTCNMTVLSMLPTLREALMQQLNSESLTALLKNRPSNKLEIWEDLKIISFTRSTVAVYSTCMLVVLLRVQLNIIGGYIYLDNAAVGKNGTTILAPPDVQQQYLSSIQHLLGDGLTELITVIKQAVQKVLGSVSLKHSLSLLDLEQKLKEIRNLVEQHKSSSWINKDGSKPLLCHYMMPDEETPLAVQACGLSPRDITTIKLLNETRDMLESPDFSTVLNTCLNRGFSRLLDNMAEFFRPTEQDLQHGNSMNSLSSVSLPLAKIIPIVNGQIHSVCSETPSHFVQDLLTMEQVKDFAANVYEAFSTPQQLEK

[4] = target: T2, RB1 (prey, CIC format) (human) (UniProt P06400); test: SIMPL ELISA, bait-IN/prey-CIC
T2 sequence (looked up): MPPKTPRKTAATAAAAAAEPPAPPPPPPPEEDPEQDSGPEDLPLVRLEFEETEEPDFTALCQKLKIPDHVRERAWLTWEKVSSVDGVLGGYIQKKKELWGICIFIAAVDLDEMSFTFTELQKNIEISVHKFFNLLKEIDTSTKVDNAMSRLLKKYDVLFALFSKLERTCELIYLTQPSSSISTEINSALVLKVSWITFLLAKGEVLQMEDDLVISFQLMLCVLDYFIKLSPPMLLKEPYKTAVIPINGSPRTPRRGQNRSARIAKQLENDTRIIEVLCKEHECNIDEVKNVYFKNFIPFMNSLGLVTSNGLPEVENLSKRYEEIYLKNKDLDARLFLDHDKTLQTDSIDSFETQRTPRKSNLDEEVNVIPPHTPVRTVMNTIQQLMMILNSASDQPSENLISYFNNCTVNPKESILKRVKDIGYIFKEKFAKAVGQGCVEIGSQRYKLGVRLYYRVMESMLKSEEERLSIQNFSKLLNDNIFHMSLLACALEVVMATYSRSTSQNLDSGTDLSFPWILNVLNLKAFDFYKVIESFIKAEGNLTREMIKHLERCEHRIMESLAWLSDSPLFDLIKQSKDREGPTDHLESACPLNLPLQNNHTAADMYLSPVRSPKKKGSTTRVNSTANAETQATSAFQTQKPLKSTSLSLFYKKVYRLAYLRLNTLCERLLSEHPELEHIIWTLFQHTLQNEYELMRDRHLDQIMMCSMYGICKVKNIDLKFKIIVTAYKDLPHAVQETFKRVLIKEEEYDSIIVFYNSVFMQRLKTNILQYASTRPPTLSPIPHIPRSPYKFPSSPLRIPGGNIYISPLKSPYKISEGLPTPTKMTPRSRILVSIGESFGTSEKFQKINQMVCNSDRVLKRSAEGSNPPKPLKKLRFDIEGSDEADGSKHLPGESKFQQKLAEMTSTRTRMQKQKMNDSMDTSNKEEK

[5] = target: CASP9 (prey, CIC format) (human) (UniProt P55211); test: SIMPL ELISA, bait-IN/prey-CIC
[6] = target: T3, ARFIP2 (prey, CIC format) (human) (UniProt P53365); test: SIMPL ELISA, bait-IN/prey-CIC
T3 sequence (looked up): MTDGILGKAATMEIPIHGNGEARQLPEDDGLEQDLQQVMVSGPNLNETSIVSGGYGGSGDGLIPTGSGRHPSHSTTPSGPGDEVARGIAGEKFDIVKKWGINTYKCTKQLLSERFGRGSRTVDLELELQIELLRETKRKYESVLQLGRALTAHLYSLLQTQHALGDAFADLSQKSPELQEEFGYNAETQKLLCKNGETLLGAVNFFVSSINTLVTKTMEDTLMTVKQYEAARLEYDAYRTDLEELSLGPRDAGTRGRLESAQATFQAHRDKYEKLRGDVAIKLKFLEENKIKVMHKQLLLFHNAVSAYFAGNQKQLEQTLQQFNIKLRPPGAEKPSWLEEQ

[7] = target: RACK1 (prey, CIC format) (human) (UniProt P63244); test: SIMPL ELISA, bait-IN/prey-CIC
[8] = target: EZR (prey, CIC format) (human) (UniProt P15311); test: SIMPL ELISA, bait-IN/prey-CIC
[9] = target: NPP-1 (C. elegans prey, IC format) (C. elegans); test: SIMPL ELISA, C. elegans lysate, IN/IC; ratio of spliced signal to total signal
[10] = target: CYB-1 (C. elegans prey, CIC format) (C. elegans) (UniProt Q10653); test: SIMPL ELISA, C. elegans lysate, IN/CIC; ratio of spliced signal to total signal
[11] = target: ZBTB16 (prey, CIC format) (human) (UniProt Q05516); test: SIMPL ELISA, bait-IN/prey-CIC
[12] = target: ARHGAP1 (prey, CIC format) (human) (UniProt Q07960); test: SIMPL ELISA, bait-IN/prey-CIC
[13] = target: CCNA1 (prey, CIC format) (human) (UniProt P78396); test: SIMPL ELISA, bait-IN/prey-CIC
[14] = target: TCL1A (prey, CIC format) (human) (UniProt P56279); test: SIMPL ELISA, bait-IN/prey-CIC
[15] = target: T4, PDPK1 (prey, CIC format) (human) (UniProt O15530); test: SIMPL ELISA, bait-IN/prey-CIC
T4 sequence (looked up): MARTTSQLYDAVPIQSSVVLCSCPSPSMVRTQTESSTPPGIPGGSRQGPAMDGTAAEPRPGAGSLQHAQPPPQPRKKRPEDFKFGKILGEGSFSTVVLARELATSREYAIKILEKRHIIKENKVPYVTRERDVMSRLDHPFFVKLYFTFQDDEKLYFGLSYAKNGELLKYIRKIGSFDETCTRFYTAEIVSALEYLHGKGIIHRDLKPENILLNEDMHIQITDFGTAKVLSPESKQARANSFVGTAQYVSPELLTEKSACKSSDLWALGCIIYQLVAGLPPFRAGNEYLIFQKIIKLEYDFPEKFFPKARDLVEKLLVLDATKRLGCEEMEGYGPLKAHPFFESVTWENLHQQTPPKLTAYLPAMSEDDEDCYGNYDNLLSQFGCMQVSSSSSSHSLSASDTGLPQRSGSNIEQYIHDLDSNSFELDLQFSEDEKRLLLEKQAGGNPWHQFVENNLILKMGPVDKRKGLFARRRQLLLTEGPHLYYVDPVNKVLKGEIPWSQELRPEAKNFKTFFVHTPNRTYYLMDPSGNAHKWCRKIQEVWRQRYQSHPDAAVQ

[16] = target: T5, PEX19 (prey, CIC format) (human) (UniProt P40855); test: SIMPL ELISA, bait-IN/prey-CIC
T5 sequence (looked up): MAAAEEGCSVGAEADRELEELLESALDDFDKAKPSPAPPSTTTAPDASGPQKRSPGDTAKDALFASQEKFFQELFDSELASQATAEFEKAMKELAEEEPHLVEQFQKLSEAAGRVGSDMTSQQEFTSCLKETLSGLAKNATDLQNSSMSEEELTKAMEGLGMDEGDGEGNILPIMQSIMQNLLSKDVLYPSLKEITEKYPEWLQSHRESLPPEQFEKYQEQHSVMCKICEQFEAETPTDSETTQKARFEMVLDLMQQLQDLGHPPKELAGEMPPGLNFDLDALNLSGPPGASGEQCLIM

[17] = target: RELA (prey, CIC format) (human) (UniProt Q04206); test: SIMPL ELISA, bait-IN/prey-CIC
[18] = target: RAD23A (prey, CIC format) (human) (UniProt P54725); test: SIMPL ELISA, bait-IN/prey-CIC
[19] = target: HSP90AA1 (prey, CIC format) (human) (UniProt P07900); test: SIMPL ELISA, bait-IN/prey-CIC
[20] = target: RAN (prey, CIC format) (human) (UniProt P62826); test: SIMPL ELISA, bait-IN/prey-CIC
[21] = target: PTPN11 (prey, CIC format) (human) (UniProt Q06124); test: SIMPL ELISA, bait-IN/prey-CIC
[22] = target: T6, NCBP2 (prey, CIC format) (human) (UniProt P52298); test: SIMPL ELISA, bait-IN/prey-CIC
T6 sequence (looked up): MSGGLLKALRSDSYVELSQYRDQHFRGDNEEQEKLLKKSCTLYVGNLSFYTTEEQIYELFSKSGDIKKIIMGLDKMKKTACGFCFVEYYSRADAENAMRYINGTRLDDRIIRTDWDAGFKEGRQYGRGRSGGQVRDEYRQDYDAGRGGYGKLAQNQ

[23] = target: T7, FRS2 (prey, CIC format) (human) (UniProt Q8WU20); test: SIMPL ELISA, bait-IN/prey-CIC
T7 sequence (looked up): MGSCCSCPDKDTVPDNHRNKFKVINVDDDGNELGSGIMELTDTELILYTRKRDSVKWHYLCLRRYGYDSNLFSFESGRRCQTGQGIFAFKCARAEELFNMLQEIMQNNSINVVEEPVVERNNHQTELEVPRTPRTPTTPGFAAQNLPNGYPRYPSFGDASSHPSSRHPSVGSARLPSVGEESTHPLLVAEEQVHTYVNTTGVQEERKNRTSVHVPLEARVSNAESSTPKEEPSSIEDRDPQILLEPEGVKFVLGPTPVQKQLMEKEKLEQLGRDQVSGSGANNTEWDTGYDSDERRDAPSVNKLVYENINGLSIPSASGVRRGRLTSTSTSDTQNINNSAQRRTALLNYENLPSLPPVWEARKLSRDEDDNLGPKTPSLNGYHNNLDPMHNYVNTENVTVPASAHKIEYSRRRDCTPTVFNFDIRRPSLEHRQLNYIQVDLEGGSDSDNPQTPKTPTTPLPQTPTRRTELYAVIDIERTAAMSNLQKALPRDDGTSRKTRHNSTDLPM

[24] = target: T8, SOC-2 (C. elegans prey, CIC format) (C. elegans) (UniProt Q22875); test: SIMPL ELISA, C. elegans lysate, IN/CIC; ratio of spliced signal to total signal
T8 sequence (looked up): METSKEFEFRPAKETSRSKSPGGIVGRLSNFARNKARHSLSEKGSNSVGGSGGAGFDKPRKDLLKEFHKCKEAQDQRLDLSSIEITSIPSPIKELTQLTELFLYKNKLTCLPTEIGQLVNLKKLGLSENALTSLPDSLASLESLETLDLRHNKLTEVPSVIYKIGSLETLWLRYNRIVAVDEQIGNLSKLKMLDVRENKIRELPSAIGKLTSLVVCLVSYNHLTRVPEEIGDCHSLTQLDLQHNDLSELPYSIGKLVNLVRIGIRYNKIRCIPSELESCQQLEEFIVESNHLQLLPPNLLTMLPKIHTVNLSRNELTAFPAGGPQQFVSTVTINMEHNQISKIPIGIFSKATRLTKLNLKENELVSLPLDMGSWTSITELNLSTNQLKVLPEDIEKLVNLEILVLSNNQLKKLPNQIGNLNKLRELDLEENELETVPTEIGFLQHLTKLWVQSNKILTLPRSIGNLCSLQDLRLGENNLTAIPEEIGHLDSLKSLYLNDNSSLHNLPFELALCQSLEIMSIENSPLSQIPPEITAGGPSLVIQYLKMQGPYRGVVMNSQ

[25] = target: T9, SOC-2 (C. elegans prey, IC format) (C. elegans) (UniProt Q22875); test: SIMPL ELISA, C. elegans lysate, IN/IC; ratio of spliced signal to total signal
T9 sequence (looked up): T8 sequence (looked up)

Substance: XIAP (bait, IN format) (from UniProt P98170 1-497)
- PLU mean [5]: 0.811
- PLU mean [6]: 0.439

Substance: PDE4D (bait, IN format) (from UniProt Q08499 1-809) (enzyme)
- PLU mean [7]: 0.639
- PLU mean [8]: 0.137

Substance: NPP-11 (C. elegans bait, IN-V5/HA)
- ELISA Value Replicate 1 [9]: 1.8
- ELISA Value Replicate 2 [9]: 0.92

Substance: RHOA (bait, IN format) (from UniProt P61586 1-193)
- PLU mean [11]: 0.691
- PLU mean [12]: 0.486
- PLU mean [13]: 0.36

Substance: AKT1 (bait, IN format) (from UniProt P31749 1-480) (enzyme)
- PLU mean [14]: 0.111
- PLU mean [15]: 0.486
- PLU mean [16]: 0.218

Substance: NR3C1 (bait, IN format) (from UniProt P04150 1-777) (receptor)
- PLU mean [17]: 0.63
- PLU mean [18]: 0.183
- PLU mean [19]: 0.652

Substance: RET (bait, IN format) (from UniProt P07949 29-1114) (receptor)
- PLU mean [22]: 1.06
- PLU mean [23]: 0.608

Substance: LET-60 (C. elegans bait, IN-V5/HA) (from UniProt P22981 1-184)
- ELISA Value Replicate 1 [24]: 0.79
- ELISA Value Replicate 2 [24]: 0.7
- ELISA Value Replicate 1 [25]: 1.2
- ELISA Value Replicate 2 [25]: 0.59

More lines, now with the values ahead:

- ELISA Value Replicate 1 [1]: 0.66
- ELISA Value Replicate 2 [1]: 0.88
Substance: RFC-2 (C. elegans bait, IN-V5/HA)

- PLU mean [2]: 0.861
- PLU mean [3]: 0.224
- PLU mean [4]: 1.18
Substance: LMNA (bait, IN format) (from UniProt P02545 1-664)

- ELISA Value Replicate 1 [10]: 1.1
- ELISA Value Replicate 2 [10]: 0.8
Substance: CDK-1 (C. elegans bait, IN-V5/HA) (from UniProt P34556 1-332) (enzyme)

- PLU mean [20]: 0.143
- PLU mean [21]: 0.539
Substance: PDGFRB (bait, IN format) (from UniProt P09619 33-1106) (receptor)
